Measured values as given in patent publication US20160264649A1.

Tests used:
Test in all cases: cell-based or functional assay
[1] = target: HIV-1 Env of isolate MGRM-F1-018 (subtype F) (HIV-1)
[2] = target: HIV-1 Env of pseudovirus isolate MGRM-G-028 (subtype G) (HIV-1)
[3] = target: HIV-1 Env of isolate MGRM-F1-004 (subtype F) (HIV-1)
[4] = target: HIV-1 Env of pseudovirus isolate MGRM-G-009 (subtype G) (HIV-1)
[5] = target: HIV-1 Env of isolate 92UG046 (subtype D) (HIV-1)
[6] = target: HIV-1 Env of isolate MGRM-F1-012 (subtype F) (HIV-1)
[7] = target: HIV-1 Env of isolate 98CN009 (subtype CRF07_BC) (HIV-1)
[8] = target: HIV-1 Env of isolate MGRM-D-029 (subtype D) (HIV-1)
[9] = target: HIV-1 Env of isolate MGRM-D-028 (subtype D) (HIV-1)
[10] = target: HIV-1 Env of isolate MGRM-D-012 (subtype D) (HIV-1)
[11] = target: HIV-1 Env of isolate MGRM-F1-023 (subtype F) (HIV-1)
[12] = target: HIV-1 Env of isolate MGRM-F1-022 (subtype F) (HIV-1)
[13] = target: HIV-1 Env of isolate MGRM-D-003 (subtype D) (HIV-1)
[14] = target: HIV-1 Env of isolate MGRM-F1-015 (subtype F) (HIV-1)
[15] = target: HIV-1 Env of isolate 92UG001 (subtype D) (HIV-1)
[16] = target: HIV-1 Env of pseudovirus isolate MGRM-G-016 (subtype G) (HIV-1)
[17] = target: HIV-1 Env of isolate MGRM-D-011 (subtype D) (HIV-1)
[18] = target: HIV-1 Env of pseudovirus isolate MGRM-G-024 (subtype G) (HIV-1)
[19] = target: HIV-1 Env of isolate MGRM-D-024 (subtype D) (HIV-1)
[20] = target: HIV-1 Env of isolate MGRM-D-001 (subtype D) (HIV-1)
[21] = target: HIV-1 Env of pseudovirus isolate MGRM-G-015 (subtype G) (HIV-1)
[22] = target: HIV-1 Env of pseudovirus isolate MGRM-G-013 (subtype G) (HIV-1)
[23] = target: HIV-1 Env of pseudovirus isolate MGRM-G-027 (subtype G) (HIV-1)
[24] = target: HIV-1 Env of isolate MGRM-D-008 (subtype D) (HIV-1)
[25] = target: HIV-1 Env of isolate MGRM-F1-006 (subtype F) (HIV-1)
[26] = target: HIV-1 Env of isolate MGRM-D-002 (subtype D) (HIV-1)
[27] = target: HIV-1 Env of isolate MGRM-D-021 (subtype D) (HIV-1)
[28] = target: HIV-1 Env of isolate MGRM-D-005 (subtype D) (HIV-1)
[29] = target: HIV-1 Env of isolate MGRM-F1-021 (subtype F) (HIV-1)
[30] = target: HIV-1 Env of isolate MGRM-D-022 (subtype D) (HIV-1)
[31] = target: HIV-1 Env of isolate MGRM-D-014 (subtype D) (HIV-1)
[32] = target: HIV-1 Env of isolate MGRM-F1-016 (subtype F) (HIV-1)
[33] = target: HIV-1 Env of isolate MGRM-D-018 (subtype D) (HIV-1)
[34] = target: HIV-1 Env of pseudovirus isolate MGRM-G-025 (subtype G) (HIV-1)
[35] = target: HIV-1 Env of isolate 92UG114 (subtype D) (HIV-1)
[36] = target: HIV-1 Env of isolate MGRM-F1-013 (subtype F) (HIV-1)
[37] = target: HIV-1 Env of pseudovirus isolate MGRM-G-004 (subtype G) (HIV-1)
[38] = target: HIV-1 Env of pseudovirus isolate MGRM-G-011 (subtype G) (HIV-1)
[39] = target: HIV-1 Env of isolate MGRM-F1-017 (subtype F) (HIV-1)
[40] = target: HIV-1 Env of isolate MGRM-D-019 (subtype D) (HIV-1)
[41] = target: HIV-1 Env of isolate MGRM-D-026 (subtype D) (HIV-1)
[42] = target: HIV-1 Env of pseudovirus isolate MGRM-G-006 (subtype G) (HIV-1)
[43] = target: HIV-1 Env of isolate MGRM-F1-008 (subtype F) (HIV-1)
[44] = target: HIV-1 Env of isolate MGRM-D-016 (subtype D) (HIV-1)
[45] = target: HIV-1 Env of isolate 98CN006 (subtype CRF08_BC) (HIV-1)
[46] = target: HIV-1 Env of isolate MGRM-F1-014 (subtype F) (HIV-1)
[47] = target: HIV-1 Env of isolate MGRM-F1-020 (subtype F) (HIV-1)
[48] = target: HIV-1 Env of pseudovirus isolate MGRM-G-001 (subtype G) (HIV-1)
[49] = target: HIV-1 Env of isolate 92UG005 (subtype D) (HIV-1)
[50] = target: HIV-1 Env of isolate MGRM-D-004 (subtype D) (HIV-1)
[51] = target: HIV-1 Env of pseudovirus isolate MGRM-G-019 (subtype G) (HIV-1)
[52] = target: HIV-1 Env of isolate MGRM-D-013 (subtype D) (HIV-1)
[53] = target: envelope of aMLV pseudovirus (negative control)
[54] = target: HIV-1 Env of isolate 92UG024 (subtype D) (HIV-1)
[55] = target: HIV-1 Env of pseudovirus isolate MGRM-G-017 (subtype G) (HIV-1)
[56] = target: HIV-1 Env of isolate MGRM-D-020 (subtype D) (HIV-1)
[57] = target: HIV-1 Env of isolate MGRM-F1-010 (subtype F) (HIV-1)
[58] = target: HIV-1 Env of pseudovirus isolate MGRM-G-014 (subtype G) (HIV-1)

B1: PGT-125 (antibody, V domains shown)
VH: QSQLQESGPRLVEASETLSLTCNVSGESTGACTYFWGWVRQAPGKGLEWIGSLSHCQSFWGSGWTFHNPSLKSRLTISLDTPKNQVFLKLTSLTAADTATYYCARFDGEVLVYNHWPKPAWVDLWGRGIPVTVSS
VL: QSALTQPPSASGSPGQSITISCNGTATNFVSWYQQFPDKAPKLIIFGVDKRPPGVPDRFSGSRSGTTASLTVSRLQTDDEAVYYCGSLVGNWDVIFGGGTTLTVL
IC50 (neutralization) [1]: > 50 µg/mL
IC50 [2]: 0.012 µg/mL
IC50 (neutralization) [3]: 0.035 µg/mL
IC50 [4]: > 50 µg/mL
IC50 (neutralization) [5]: > 50 µg/mL
IC50 (neutralization) [6]: > 50 µg/mL
IC50 (neutralization) [7]: 0.03 µg/mL
IC50 (neutralization) [8]: > 50 µg/mL
IC50 (neutralization) [9]: > 50 µg/mL
IC50 (neutralization) [10]: > 50 µg/mL
IC50 (neutralization) [11]: 0.012 µg/mL
IC50 (neutralization) [12]: > 50 µg/mL
IC50 (neutralization) [13]: 0.065 µg/mL
IC50 (neutralization) [14]: > 50 µg/mL
IC50 (neutralization) [15]: > 50 µg/mL
IC50 [16]: > 50 µg/mL
IC50 (neutralization) [17]: 0.008 µg/mL
IC50 [18]: > 50 µg/mL
IC50 (neutralization) [19]: > 50 µg/mL
IC50 (neutralization) [20]: 2.84 µg/mL
IC50 [21]: > 50 µg/mL
IC50 [22]: > 50 µg/mL
IC50 [23]: 34.4 µg/mL
IC50 (neutralization) [24]: > 50 µg/mL
IC50 (neutralization) [25]: 0.361 µg/mL
IC50 (neutralization) [26]: 0.118 µg/mL
IC50 (neutralization) [27]: 0.04 µg/mL
IC50 (neutralization) [28]: > 50 µg/mL
IC50 (neutralization) [29]: > 50 µg/mL
IC50 (neutralization) [30]: > 50 µg/mL
IC50 (neutralization) [31]: 0.12 µg/mL
IC50 (neutralization) [32]: > 50 µg/mL
IC50 (neutralization) [33]: 0.049 µg/mL
IC50 [34]: > 50 µg/mL
IC50 (neutralization) [35]: 0.349 µg/mL
IC50 (neutralization) [36]: > 50 µg/mL
IC50 [37]: > 50 µg/mL
IC50 [38]: > 50 µg/mL
IC50 (neutralization) [39]: > 50 µg/mL
IC50 (neutralization) [40]: > 50 µg/mL
IC50 (neutralization) [41]: > 50 µg/mL
IC50 [42]: > 50 µg/mL
IC50 (neutralization) [43]: > 50 µg/mL
IC50 (neutralization) [44]: > 50 µg/mL
IC50 (neutralization) [45]: 0.201 µg/mL
IC50 (neutralization) [46]: > 50 µg/mL
IC50 (neutralization) [47]: > 50 µg/mL
IC50 [48]: 0.033 µg/mL
IC50 (neutralization) [49]: > 50 µg/mL
IC50 (neutralization) [50]: 0.371 µg/mL
IC50 [51]: > 50 µg/mL
IC50 (neutralization) [52]: > 50 µg/mL
IC50 [53]: > 50 µg/mL
IC50 (neutralization) [54]: > 50 µg/mL
IC50 [55]: > 50 µg/mL
IC50 (neutralization) [56]: 0.015 µg/mL
IC50 (neutralization) [57]: > 50 µg/mL
IC50 [58]: 0.007 µg/mL
